Assays:
[1] = target: T1, GST-285C (m285 C-terminal, three zinc fingers) (Mus musculus, UniProt Q9JHX2 SEQ:271-398); experiment: competition; unlabeled mutant competitor had no effect on complex with GC-box; settings: tags: GST N-terminal (pGEX 4T-3)
From the text: (§1) Sp1 is known to bind to a GC-box through its three zinc finger domains. The m285 cloned in the present invention has three zinc finger domains that share a very high homology with the Sp family, and therefore the protein was expected to bind to a GC-box. Thus, 285F, 285N, and 285C were expressed as GST fusion proteins in E. coli to examine their binding to a GC-box. GST fusion proteins purified with glutathione Sepharose, and as the GC box a DNA probe having the nucleotide sequence in the Waf-1 promoter region which sequence binds to Sp1 were used. DNA probe was prepared by labeling ds-(5′-TCGAAAGGAGGCGGGACCCGAGCT-3′/SEQ ID NO: 25) containing a GC-box sequence with 33-P. The DNA probe was reacted with GST-285F, GST-285N, and GST-285C described above in EMSA buffer (20 mM HEPES, 40 mM KCl, 6 MM MgCl₂, 1 mM EGTA, 1 mM DTT, 0.1% NP-40, 10% Glycerol, 0.15% BSA, 25 ng/μl sonicated salmon sperm DNA) for 20 minutes. To examine the presence of competitive inhibition, either an unlabeled GC-box DNA probe or unlabeled mutant GC-box DNA probe (ds-(5′-TCGAAAGGAGTTTTGACCCGGAGCT-3′/SEQ ID NO: 26)) was further added to a similar reaction system. Recombinant Sp1 was used as a positive control. The reactants were electrophoresed on 5% acrylamide gel and were exposed to imaging plates. Analyses were performed using BAS2000 imaging analyzer.
(§2) As a result of gel shift assay, bands that were considered to correspond to DNA-protein complex were observed when GST-285F, GST-285C, or recombinant Sp1 were reacted with the 33-P labeled GC-box DNA probe (FIG. 9; lanes 1, 4, and 9). No complex b and could be observed for GST-285N reacted with the GC-box DNA probe (FIG. 9; lane 7). The addition of unlabeled GC-box DNA probe vanished or decreased the complex bands of GST-285F, GST-285C, or recombinant Sp1, and the GC-box DNA probe (FIG. 9; lanes 2, 5, and 10). Further, the addition of unlabeled mutant GC-box DNA probe to a similar reaction system had no effect on the complex bands of GST-285F, GST-285C, or recombinant Sp1, and the GC-box DNA probe (FIG. 9; lanes 3, 6, and 11).

Sp1 [2] = target: T2, Sp1 (UniProt P08047 P08047:2-785); experiment: as above
T2 sequence (P08047 2-785, one chain of several): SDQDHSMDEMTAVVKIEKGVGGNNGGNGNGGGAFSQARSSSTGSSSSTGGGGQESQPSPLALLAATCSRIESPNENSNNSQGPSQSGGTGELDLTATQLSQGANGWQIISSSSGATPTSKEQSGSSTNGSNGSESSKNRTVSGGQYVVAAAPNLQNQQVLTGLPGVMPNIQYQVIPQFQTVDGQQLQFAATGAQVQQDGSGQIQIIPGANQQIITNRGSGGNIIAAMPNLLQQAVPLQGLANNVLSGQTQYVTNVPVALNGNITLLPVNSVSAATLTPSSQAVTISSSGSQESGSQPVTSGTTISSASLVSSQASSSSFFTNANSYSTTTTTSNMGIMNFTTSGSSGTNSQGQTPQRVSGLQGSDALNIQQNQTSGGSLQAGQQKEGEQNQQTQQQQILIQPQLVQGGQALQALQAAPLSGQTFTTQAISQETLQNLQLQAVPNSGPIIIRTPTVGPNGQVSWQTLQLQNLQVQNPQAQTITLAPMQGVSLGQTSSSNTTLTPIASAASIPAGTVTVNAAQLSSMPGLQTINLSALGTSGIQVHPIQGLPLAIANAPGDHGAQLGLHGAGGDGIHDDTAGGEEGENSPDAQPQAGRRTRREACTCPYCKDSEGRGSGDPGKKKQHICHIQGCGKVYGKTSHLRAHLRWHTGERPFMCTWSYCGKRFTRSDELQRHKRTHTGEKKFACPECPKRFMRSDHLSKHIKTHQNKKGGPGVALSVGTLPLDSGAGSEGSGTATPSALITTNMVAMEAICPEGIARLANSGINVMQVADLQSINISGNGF
From the text: as §1, §2

[3] = target: T3, GST-285F (m285 full length) (Mus musculus, UniProt Q9JHX2 SEQ:1-398); experiment: as above; settings: tags: GST N-terminal (pGEX 4T-3)
T3 sequence (Q9JHX2 whole entry): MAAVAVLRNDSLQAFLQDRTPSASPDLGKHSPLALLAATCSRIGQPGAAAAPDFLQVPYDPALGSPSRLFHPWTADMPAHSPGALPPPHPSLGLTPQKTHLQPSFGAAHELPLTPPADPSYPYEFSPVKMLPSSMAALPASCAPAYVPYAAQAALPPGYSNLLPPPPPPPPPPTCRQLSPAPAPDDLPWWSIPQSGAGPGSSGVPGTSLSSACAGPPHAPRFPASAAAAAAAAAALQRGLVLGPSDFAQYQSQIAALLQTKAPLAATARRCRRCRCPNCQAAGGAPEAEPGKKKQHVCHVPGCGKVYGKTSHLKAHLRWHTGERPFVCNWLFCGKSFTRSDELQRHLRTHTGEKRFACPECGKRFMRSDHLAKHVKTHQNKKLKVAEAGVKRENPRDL
From the text: as §1, §2

[4] = target: T1, GST-285C (m285 C-terminal, three zinc …); experiment: EMSA; same buffer; competed by unlabeled GC-box; settings: tags: GST N-terminal (pGEX 4T-3); label: 33P
From the text: as §1, with “analyzer. […]” for “analyzer.”

[5] = target: T3, GST-285F (m285 full length); experiment: EMSA; 20 mM HEPES, 40 mM KCl, 6 mM MgCl2, salmon sperm DNA; competed by unlabeled GC-box; settings: tags: GST N-terminal (pGEX 4T-3); label: 33P
From the text: as §1, with “analyzer. […]” for “analyzer.”

Sp1 [6] = target: T2, Sp1; experiment: EMSA; positive control; competed by unlabeled GC-box; settings: label: 33P
From the text: as §1, with “analyzer. […]” for “analyzer.”

[7] = target: GST-285N (m285 N-terminal) (Mus musculus, UniProt Q9JHX2 SEQ:1-278); experiment: EMSA; no complex; lacks zinc fingers; settings: tags: GST N-terminal (pGEX 4T-3); label: 33P
GST-285N (m285 N-terminal), sequence (Q9JHX2 1-278): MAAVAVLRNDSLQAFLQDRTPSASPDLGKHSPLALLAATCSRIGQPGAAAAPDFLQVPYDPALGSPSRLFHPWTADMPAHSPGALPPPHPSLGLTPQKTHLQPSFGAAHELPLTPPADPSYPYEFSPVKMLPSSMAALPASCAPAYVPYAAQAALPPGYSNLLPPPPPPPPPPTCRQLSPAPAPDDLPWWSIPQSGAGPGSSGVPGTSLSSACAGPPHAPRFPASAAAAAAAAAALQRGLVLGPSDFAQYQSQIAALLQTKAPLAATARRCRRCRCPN
From the text: as §1, with “analyzer. […]” for “analyzer.”

T1 sequence (Q9JHX2 271-398): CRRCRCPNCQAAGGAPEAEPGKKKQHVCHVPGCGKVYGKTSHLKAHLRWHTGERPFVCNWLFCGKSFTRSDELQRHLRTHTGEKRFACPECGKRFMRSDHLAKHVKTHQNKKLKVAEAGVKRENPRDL

Binder | binding result [1] | binding result (Sp1 [2]) | binding result [3] | binding result [4] | binding result [5] | binding result (Sp1 [6]) | binding result [7]
mutant GC-box (dsDNA) DNA 1: TCGAAAGGAGTTTTGACCCGGAGCT DNA 2: AGCTCCGGGTCAAAACTCCTTTCGA | no binding | no binding | no binding | – | – | – | –
Waf-1 promoter GC-box probe (dsDNA) DNA 1: TCGAAAGGAGGCGGGACCCGAGCT DNA 2: AGCTCGGGTCCCGCCTCCTTTCGA | – | – | – | binds | binds | binds | no binding

— patent US20030162205, “Novel transcription factor having zinc finger domain” (published 2003)
